Here are results for three substances from article PMC5868259.

Bounds are passed on as bounds.

For this test, the target named is PKA catalytic subunit (PKAc), recombinant (UniProt P05132). The experiment in a line: fluorescence polarisation; LiReC competition assay, R-subunit inhibition response without cAMP: 10.0 nM PKAc, 1 nM-1 μM bRIα (monomer), 1.67 nM [5/6-FAM]-IP20; 50 mM MOPS pH 7.0, 35 mM NaCl, 10 mM MgCl2, 1 mM ATP, 2 mM DTT, 0.005% Triton X-100.

As to “recombinant bovine PKA regulatory subunit RIα (bRIα), S101A mutant (from UniProt P00514 1-380) (natural protein)”, the IC50 was 5.05 nM and the Kd is less than 10 nM.

For “recombinant bovine PKA regulatory subunit RIα (bRIα), S101E phosphomimetic mutant (from UniProt P00514 1-380) (natural protein)”, the IC50 is 212 nM.

With “recombinant bovine PKA regulatory subunit RIα (bRIα), wildtype (from UniProt P00514 1-380) (natural protein)”, the IC50 amounted to 4.5 nM and the Kd was less than 10 nM.
